Key:
Experiment in all cases: co-IP with anti-FLAG, mass spectrometry; lysate of cells with N-FLAG B3GNT2
IPO13 = target: T1, IPO13 (human, UniProt O94829 1-963)
T1 construct: also called NP_055467.3
T1 sequence (looked up): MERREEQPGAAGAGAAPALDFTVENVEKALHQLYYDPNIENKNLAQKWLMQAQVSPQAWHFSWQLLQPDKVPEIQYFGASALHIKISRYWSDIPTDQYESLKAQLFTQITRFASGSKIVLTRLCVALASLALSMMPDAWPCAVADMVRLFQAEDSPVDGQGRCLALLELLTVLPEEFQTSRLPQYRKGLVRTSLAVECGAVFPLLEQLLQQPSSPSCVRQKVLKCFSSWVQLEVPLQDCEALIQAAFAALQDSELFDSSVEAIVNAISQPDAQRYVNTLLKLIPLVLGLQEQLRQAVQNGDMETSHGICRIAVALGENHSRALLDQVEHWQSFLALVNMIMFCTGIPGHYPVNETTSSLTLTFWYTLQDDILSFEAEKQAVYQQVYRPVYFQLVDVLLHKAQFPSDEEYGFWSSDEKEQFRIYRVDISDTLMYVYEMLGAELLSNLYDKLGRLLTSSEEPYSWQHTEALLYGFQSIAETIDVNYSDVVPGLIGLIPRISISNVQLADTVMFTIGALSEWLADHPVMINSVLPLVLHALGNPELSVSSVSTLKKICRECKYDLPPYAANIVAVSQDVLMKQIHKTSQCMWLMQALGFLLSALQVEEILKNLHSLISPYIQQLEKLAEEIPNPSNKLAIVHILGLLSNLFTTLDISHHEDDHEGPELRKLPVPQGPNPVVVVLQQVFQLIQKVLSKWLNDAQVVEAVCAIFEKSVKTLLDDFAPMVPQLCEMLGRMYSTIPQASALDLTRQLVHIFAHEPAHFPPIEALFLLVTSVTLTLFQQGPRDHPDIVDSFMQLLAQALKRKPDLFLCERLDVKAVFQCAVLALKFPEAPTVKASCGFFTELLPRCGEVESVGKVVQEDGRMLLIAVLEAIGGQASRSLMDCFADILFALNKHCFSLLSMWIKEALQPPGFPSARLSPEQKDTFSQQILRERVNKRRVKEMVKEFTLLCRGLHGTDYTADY
Experimental: (§1) Cells were plated in 10-cm cell culture dishes and grown to 60-80% confluency. For each condition, two biological replicates were harvested for co-IP. Cells were washed with PBS and 4 mL of lysis buffer (20 mM HEPES, 1% Triton X-100, 150 mM NaCl, 1 mM EDTA, and 10% glycerol) containing protease inhibitor cocktail was added. Cells were scraped and lysate was incubated at 4° C. under rotary agitation for 1 h. Lysate was centrifuged at 14,000×g for 10 min at 4° C. Supernatant was transferred to a new tube and an aliquot was taken as the input. […] For Western blots, 10 μg/mL Chicken Anti-FLAG (Aves labs ET-DY100) and IgY control (R&D Systems AB-101-C) antibodies were biotinylated (Thermo Fisher Scientific 90407) and added to the respective conditions. Lysates with antibodies were incubated at 4° C. under rotary agitation overnight. For each mL of lysate, 50 μL of Pierce Protein A/G Magnetic Beads (Mass spectrometry; Thermo Fisher Scientific 88803) or Pierce Streptavidin Magnetic Beads (Western blot; Thermo Fisher Scientific 88817) was washed twice with lysis buffer. Lysates with antibodies were added to the beads and incubated at 4° C. under rotary agitation for 4 h. Beads were washed with lysis buffer 3 times and resuspended in lysis buffer for storage.
(§2) Magnetic beads were resuspended in 100 mM Tris pH 7.8, reduced, alkylated and digested with trypsin at 37° ° C. overnight. This solution was subjected to solid phase extraction to concentrate the peptides and remove unwanted reagents followed by injection onto a Shimadzu HPLC with fraction collector. Eight fractions were collected and after concentration were injected on a Waters NanoAcquity HPLC equipped with a self-packed Aeris 3 μm C18 analytical column 0.075 mm by 20 cm, (Phenomenex). Peptides were eluted using standard reverse-phase gradients. The effluent from the column was analyzed using a Thermo Orbitrap Elite mass spectrometer (nanospray configuration) operated in a data dependent manner for 54 minutes. The resulting fragmentation spectra were correlated against the known database using Proteome Discover 1.4 (Thermo Fisher Scientific).

MAGT1 = target: T2, MAGT1 (human, UniProt Q9H0U3 30-335, limits assumed)
T2 construct: also called NP_115497.4
T2 sequence (looked up): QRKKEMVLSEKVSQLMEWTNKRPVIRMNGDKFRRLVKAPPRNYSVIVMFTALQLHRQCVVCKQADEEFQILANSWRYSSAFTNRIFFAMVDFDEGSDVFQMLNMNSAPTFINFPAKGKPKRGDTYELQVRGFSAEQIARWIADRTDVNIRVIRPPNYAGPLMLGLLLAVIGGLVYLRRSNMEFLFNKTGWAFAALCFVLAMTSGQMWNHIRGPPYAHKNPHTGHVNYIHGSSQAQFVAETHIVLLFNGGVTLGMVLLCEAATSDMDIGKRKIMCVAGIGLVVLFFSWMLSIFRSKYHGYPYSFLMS
Experimental: as §1, §2

PJA2 = target: T3, PJA2 (human, UniProt O43164 2-708)
T3 construct: also called NP_055634.3
T3 sequence (looked up): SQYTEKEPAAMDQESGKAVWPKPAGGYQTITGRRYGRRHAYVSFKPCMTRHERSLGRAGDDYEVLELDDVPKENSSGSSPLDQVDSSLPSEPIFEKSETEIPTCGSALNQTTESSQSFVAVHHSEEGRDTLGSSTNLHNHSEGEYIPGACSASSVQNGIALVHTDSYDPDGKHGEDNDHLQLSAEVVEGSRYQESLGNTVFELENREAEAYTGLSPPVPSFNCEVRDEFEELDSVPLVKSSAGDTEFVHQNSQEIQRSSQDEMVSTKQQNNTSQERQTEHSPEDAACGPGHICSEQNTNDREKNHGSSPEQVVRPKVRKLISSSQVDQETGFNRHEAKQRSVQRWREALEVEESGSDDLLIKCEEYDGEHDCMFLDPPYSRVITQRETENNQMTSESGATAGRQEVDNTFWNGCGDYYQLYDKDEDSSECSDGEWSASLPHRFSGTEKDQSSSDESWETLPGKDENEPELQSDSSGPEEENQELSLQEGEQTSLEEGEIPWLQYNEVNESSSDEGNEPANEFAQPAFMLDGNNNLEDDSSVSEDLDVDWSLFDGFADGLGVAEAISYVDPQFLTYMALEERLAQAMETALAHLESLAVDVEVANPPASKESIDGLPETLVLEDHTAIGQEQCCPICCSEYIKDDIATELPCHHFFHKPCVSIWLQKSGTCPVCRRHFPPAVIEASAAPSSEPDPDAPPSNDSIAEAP
Experimental: as §1, §2

Measured: co-IP mass spectrometry count

B1: N-terminal FLAG tagged B3GNT2 (enzyme, human, UniProt Q9NY97 1-397, looked up)
chain: MSVGRRRIKLLGILMMANVFIYFIMEVSKSSSQEKNGKGEVIIPKEKFWKISTPPEAYWNREQEKLNRQYNPILSMLTNQTGEAGRLSNISHLNYCEPDLRVTSVVTGFNNLPDRFKDFLLYLRCRNYSLLIDQPDKCAKKPFLLLAIKSLTPHFARRQAIRESWGQESNAGNQTVVRVFLLGQTPPEDNHPDLSDMLKFESEKHQDILMWNYRDTFFNLSLKEVLFLRWVSTSCPDTEFVFKGDDDVFVNTHHILNYLNSLSKTKAKDLFIGDVIHNAGPHRDKKLKYYIPEVVYSGLYPPYAGGGGFLYSGHLALRLYHITDQVHLYPIDDVYTGMCLQKLGLVPEKHKGFRTFDIEEKNKNNICSYVDLMLVHSRKPQEMIDIWSQLQSAHLKC
notes: Bait of the co-IP; pulled down with mouse anti-FLAG (Millipore Sigma F3165) from cell lysate; also called N-FLAG B3GNT2; N-term FLAG; not shown: N-terminal FLAG tag
0: IPO13 | MAGT1 | PJA2
